Patent US20170096461A1 (IMMATICS BIOTECHNOLOGIES, published 2017)

biological target: T1, HLA-A*02:01 (peptide-receptive MHC class I monomer after UV-ligand exchange) (human); assay: UV-ligand exchange + anti-b2m ELISA; exchange yield grade: + >=10%, ++ >=20%, +++ >=50, ++++ >=75%
T1 construct: Monomers made with a UV-sensitive peptide that is cleaved by UV and exchanged for the test peptide; captured on streptavidin plates; also called MHC molecules
Excerpt: Candidate peptides for T cell based therapies according to the present invention were further tested for their MHC binding capacity (affinity). The individual peptide-MHC complexes were produced by UV-ligand exchange, where a UV-sensitive peptide is cleaved upon UV-irradiation, and exchanged with the peptide of interest as analyzed. Only peptide candidates that can effectively bind and stabilize the peptide-receptive MHC molecules prevent dissociation of the MHC complexes. To determine the yield of the exchange reaction, an ELISA was performed based on the detection of the light chain (β2m) of stabilized MHC complexes. The assay was performed as generally described in Rodenko et al. (Rodenko et al., 2006).
96 well MAXISorp plates (NUNC) were coated over night with 2 ug/ml streptavidin in PBS at room temperature, washed 4× and blocked for 1 h at 37° C. in 2% BSA containing blocking buffer. Refolded HLA-A*02:01/MLA-001 monomers served as standards, covering the range of 15-500 ng/ml. Peptide-MHC monomers of the UV-exchange reaction were diluted 100 fold in blocking buffer. Samples were incubated for 1 h at 37° C., washed four times, incubated with 2 ug/ml HRP conjugated anti-β2m for 1 h at 37° C., washed again and detected with TMB solution that is stopped with […]. Absorption was measured at 450 nm. Candidate peptides that show a high exchange yield (preferably higher than 50%, most preferred higher than 75%) are generally preferred for a generation and production of antibodies or fragments thereof, and/or T cell receptors or fragments thereof, as they show sufficient avidity to the MHC molecules and prevent dissociation of the MHC complexes.

Binder	peptide exchange yield [%]
SLFSQMGSQYEL [peptide SLFSQMGSQYEL (SEQ ID NO: 56)]	50 to 75
FLFPVYPLI [peptide FLFPVYPLI (SEQ ID NO: 68)]	50 to 75
VLLSGLTEV [peptide VLLSGLTEV (SEQ ID NO: 59)]	≥ 75
SLSGEIILHSV [peptide SLSGEIILHSV (SEQ ID NO: 45)]	20 to 50
LLMSTENEL [peptide LLMSTENEL (SEQ ID NO: 63)]	50 to 75
YLNLISTSV [peptide YLNLISTSV (SEQ ID NO: 66)]	50 to 75
MLYDIVPVV [peptide MLYDIVPVV (SEQ ID NO: 67)]	50 to 75
ALIVGIPSV [peptide ALIVGIPSV (SEQ ID NO: 44)]	≥ 75
ALWVAVPKA [peptide ALWVAVPKA (SEQ ID NO: 46)]	50 to 75
GLLEALLKI [peptide GLLEALLKI (SEQ ID NO: 47)]	50 to 75
ILASFMLTGV [peptide ILASFMLTGV (SEQ ID NO: 52)]	≥ 75
VLLNINGIDL [peptide VLLNINGIDL (SEQ ID NO: 58)]	≥ 75
VLFHQLQEI [peptide VLFHQLQEI (SEQ ID NO: 64)]	50 to 75
TLLWKLVEV [peptide TLLWKLVEV (SEQ ID NO: 70)]	20 to 50
KLFDRSVDL [peptide KLFDRSVDL (SEQ ID NO: 69)]	20 to 50
YQAPYFLTV [peptide YQAPYFLTV (SEQ ID NO: 61)]	50 to 75
LLIADNPQL [peptide LLIADNPQL (SEQ ID NO: 55)]	≥ 75
ILDEAGVKYFL [peptide ILDEAGVKYFL (SEQ ID NO: 51)]	50 to 75
VVSGATETL [peptide VVSGATETL (SEQ ID NO: 60)]	≥ 75
FLLSQIVAL [peptide FLLSQIVAL (SEQ ID NO: 50)]	50 to 75
VMLPIGAVVMV [peptide VMLPIGAVVMV (SEQ ID NO: 62)]	50 to 75
SLIGLDLSSV [peptide SLIGLDLSSV (SEQ ID NO: 48)]	50 to 75
VMYDLITEL [peptide VMYDLITEL (SEQ ID NO: 65)]	50 to 75
FIFEQVQNV [peptide FIFEQVQNV (SEQ ID NO: 71)]	50 to 75
SIMDYVVFV [peptide SIMDYVVFV (SEQ ID NO: 6)]	≥ 75
HLFDIILTSV [peptide HLFDIILTSV (SEQ ID NO: 54)]	≥ 75
VLIGDVLVAV [peptide VLIGDVLVAV (SEQ ID NO: 57)]	≥ 75
SLQSLIISV [peptide SLQSLIISV (SEQ ID NO: 5)]	≥ 75
LLSEEHITL [peptide LLSEEHITL (SEQ ID NO: 53)]	≥ 75
RLALNTPKV [peptide RLALNTPKV (SEQ ID NO: 49)]	20 to 50
